The nanobody polyreactivity screen of Harvey et al. (2022)

Test: yeast display, Sf9 membrane polyspecificity reagent, FACS + sequencing; frameworks hold sequencing errors
Procedure, shortened: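 Nanobodies from a synthetic yeast display library (Saccharomyces cerevisiae BJ5465), induced 36–48 hours with galactose, were stained 1 hour at 4 °C with 10% biotinylated, detergent-solubilized Sf9 membrane reagent, enriched on streptavidin microbeads, then FACS-sorted. Anti-HA (expression) and streptavidin (reagent binding) fluorescence set low and high (top ~1%) gates. Polyreactivity labels come from the gate of origin. Genes were colony-PCR amplified, MiSeq 2 × 250 sequenced and filtered by CDR length.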

| Sequence | polyreactivity (PSR sort gate) |
| --- | --- |
| QVQIVESGGGLVQAGGSLRLSCAASGSIFSDYVMGWYRQAPRKERELVATISRGGGSTFYADSVKGRFTISRDYAKITVYLQMNSLKPEDTAVYYCAAPPGPSGAKYDYWGQGTQVSVSS | low polyreactivity |
| QVQIVESGGGLVQAGGSLRLSCAASGSIFVNNAMGWYRQAPGKVRELVARISFSGGSTYYADSVKGRFTISRDNAKNTVYLQMISLNPEDTAVYYCAKTVLRTESGWWIKFDYWGQVTQVTVSS | low polyreactivity |
| QVQIVESGGGLVQAGGSLRLSCAASGSIFYYYAMGWYRQAPGNERELVADISISGGSTYYADSVKGRFTISRDTAKNTVYLQMNSQKPEDTAVYYSAATSTYRSYLEYDYWGQGTQVTVSS | low polyreactivity |
| QVQIVESGGGLVQAGGSLRLSCAASGSISVPYGMGWYRQAPGKERELVAAISGGSTNYADSVKGRFTISRDNAKNTVYLQMNSLKPEDTAVYFCAADWWAWYTRYDYWGQGSQVTVSS | low polyreactivity |
| QVQIVESGGGLVQAGGSLRLSCAASGSTFPWYVMGWYRQAPGKERELVAAISWSGGRTYYADSVKGRFTISRDNAKNTVYLQMTRLKPEDRAVYYCAAEFKLVSHTYYYWGQGTQVTVSS | low polyreactivity |
| QVQIVESGGGLVQAGGSLRLSCAASGSTFSYNAMGWYRQAPGKERELVATISNTDSTNYADSVKGRFTISRDNAKNTLYLQMNSLKPEDTSVYSCAAVVSTVDGMEYWGQGTQVNVSS | low polyreactivity |
| QVQIVESGGGLVQAGGSLRLSCAASGSTFVDYDMGWYRQAPGKERELVAGITTGGSTNYADSVKGRFTISRDNAKNTVYLQMNRLKPEDTAVYYCAATVYGIYYYGRDRYDYWGQATQVTVSS | low polyreactivity |
| QVQIVESGGGLVQAGGSLRLSCAASGSTFYPNAMGWYRQAPGKERELVAAISRGTRTKYADSVKGRFTISRDNAKNTVYLQINSLKPEDTAVYYCAADTGKGLDWGQGTHVTVSS | high polyreactivity |
| QVQIVESGGGLVQAGGSLRLSCAASGYIFYPYTMGWYRQAPVKERQLVAAITWSGSTYYADSVKGRFTISRDNAKNTVYLQMNSLKPEDTAVYYCARESDWWREFPYDYWGHGTQVTVSS | low polyreactivity |
| QVQIVESGGGLVQAGGSLRLSCAASGYIVRNAMGWYRQAPGKERELVAAISRRGGRTYYADSVKGRFTISRDNAKNTVYLQMHSLKPEDTAVYYCNKLPGTPRSLATGDYWGQGTQVTVSS | high polyreactivity |
| QVQIVESGGGLVQAGGSLRLSCADSGRTLYRYGMGWYRQAPGKERELVDVIDRGGSTNYADSVKGRFTISRDNAKNTVYLLMNSLKPEDTAVYYCAKRWTAREPWRKGMGYWGQGTQVTVSS | high polyreactivity |
| QVQIVESGGGLVQAGGSLRLSCAPSGRIFRKYAMGWYRQAPGKERELVAAISVGGGSTRYADSVKGRFTISRDNAKNTVYLQMNSLKPEDTAVYYCAVKWFSGGYDYWGQGTQVNVSS | low polyreactivity |
| QVQIVESGGGLVQAGGSLRLSCDASGRIFTAYAMGWYRQAPGKERELVAAISSGDSTYYAYSVKGRFSISRDNAKNTLYLQMNSLNPEDTEVYYCATCVYPDFEYDSWGQGTQVTVSA | low polyreactivity |
| QVQIVESGGGLVQAGGSLRLSCSASGSTFPFYAMGWYRQAPGKERELVAAITRSGSRTYYADSVKGRFTISRDNAKNTVFLQMNSLKPEDTAVYYFAASSTDLYFWGQGTQVTVSS | high polyreactivity |
| QVQIVESGGGLVQAGGSLRLSWASSGRIFYSNAMGRYRQAPGKERELVAAISYSGDSTYYADSVQGRFTISRDNAKNTGYFQMNSLKPEVTAVYYCAAETYVGEDYWGQGTQETVSS | high polyreactivity |
| QVQIVESGGGLVQAGGSLRLTCAASGSIFTVYAMGWYRQEPGKERELVAAISSGASTNYADTVKGRFTISRDNATNTVYLQMNSLKPEDTAVYYFAARLYARRLYDYWGQGSQVTVSS | low polyreactivity |
| QVQIVESGGGLVQAGGSLRLTCAASGSTLTIYARGWYRQAPGKERDLVAAISRSGGRTYYADSVKGRFTISRDYAKNTVYLQMNSLKPEDTAVYYCAARGWSYRSVGYMDYWGQGTQVTVSS | high polyreactivity |
| QVQIVESGGGLVQAGGSLRLTCAASGYIFTYYAMGWYRQAPWKERDLVAAISGSDGNTYYADSVKGRFTISRDNAKNTVYLQMNSLKPEDTAVYYCAKSGGLTFRSQSYDYWGQGTQVTVSS | low polyreactivity |
| QVQIVESGGGLVQAGGSLRVSCAASGFTFDENAMGWYRQAPGINYSGASTYYADSVKGRFTISRDNAKNTVYLQMNSVKQDDTAVYYCAAEVVAQMNYWGQGTQVTVSS | low polyreactivity |
| QVQIVESGGGLVQAGGSLSLSCAASGFIFSVNDMGWYRQAPGKERELVAAISRDSGSKYYADSVKGRFTISRDNAQNSVYLEMISLKPEDTAVYDCNGEGQWVWDPYGVYDDDSYNYWGQGTQVTVSS | low polyreactivity |
| QVQIVESGGGLVQAGRSLRLSCAASGSTFEFYAMGWYRQAPGKEREFVAGITSSGVTTYYADSVKGRFTISRDNAKYTVYLQMNSLKPVDTAVYYCAATDVVYSWFFLVYIPYDYWGQGTQVTVSS | low polyreactivity |
| QVQIVESGGGLVQEGGSLRLSCAASGRIFEPYDMGLYRQSPGKERELVAALRCSGGSTYYADSVKGRFTISRDNAKNTVYLQMNSLKPEDTAVYYCAKDAFGWGRVYYYRSGYWGQGTQVTVSS | high polyreactivity |
| QVQIVESGGGLVQPGCSLRLSCAASGRIFYGYAMGLYRQSPGKERELVAAITSTRGRTYYADSVKGRFTISRDNAKNTFYLQMNSLKPEDSAVYYCAKRGYTRWGLDYWGQGTQVTVSS | high polyreactivity |
| QVQIVESGGGLVQPGGILRLSCAASGSTSQPYDMGWYRQAPGKEWELVASITKGRITYYADSVKGRFTISRDNAKNTVYLQMNSRKPEDTAVYYCNADNVFEGYDGRSARASYRYYSWGQGTQVTVSS | low polyreactivity |
| QVQIVESGRGLFQAGGSLRLSCAASGSIFRFNVMGWYRPATGKECELVASISDSGDNTNYADSVKGRFTISGDNAKNPVDLLMNSLKPEDTAVYYCAARGSRWYIAVDYRGQGTQVTVSS | low polyreactivity |
| QVQIVESGRGLVQAGGSLRLSCAASGLTFARNAMGWSRPAPGKQRELVAAITSGASTTYADSVKGRITISRDNAMNTVSVQMNSLKPEDTAVYYCAAPGYWVRTYGGWSRLDYWGQGTQVTVSS | high polyreactivity |
| QVQIVESGVGLVQAGGSLSLSCAASGIIIHSNAMGWYRQAPGKERELVAAITSSGGSKYYADSVKGRFTISRDNAKNTVYLQMNSLKPVDTAVYYCAVVTILVYRYVVPYDYWGHGTQVTVSS | high polyreactivity |
| QVQIVESRGGLVQAGGSLRLSCAASGRILYLYAMGWYRQAPGKERELVARISQRDGSTYYADSVKGRFTISRDNAKNNDYLHMNSLKPEDTAVYYCNAVFSRGSYGYSYDYWGQGTQVTVSS | low polyreactivity |
| QVQIVESRGGLVQAGGSLSLSCAASGRIFDYYAMGWYRQPPGKERELVAAISSSVGNTYYADSVKGRFTISRDNSKNTVYLQMNSLKPEVTAVYYCADYSYVRSSYEVEYDYWGQGTQVTVSS | low polyreactivity |
| QVQIVESRVGLVQAGGSLRLSCAASGLTFYYYAMGWYRQAPGKERELVAAIDGSGGITYYEDSLKARFTISRDNEKNTVYLQMNSLKPEDTAVYYCAAERVVGDAYDYWGQGTQVTVSS | high polyreactivity |
